Assay results taken from patent publication US20050176123A1 (MORINAGA MILK INDUSTRY, published 2005).

Assays:
Assay in all cases: cell-based or functional assay
papain [1] = molecular target: T1, papain (UniProt P00784 134-345)
T1 sequence (looked up): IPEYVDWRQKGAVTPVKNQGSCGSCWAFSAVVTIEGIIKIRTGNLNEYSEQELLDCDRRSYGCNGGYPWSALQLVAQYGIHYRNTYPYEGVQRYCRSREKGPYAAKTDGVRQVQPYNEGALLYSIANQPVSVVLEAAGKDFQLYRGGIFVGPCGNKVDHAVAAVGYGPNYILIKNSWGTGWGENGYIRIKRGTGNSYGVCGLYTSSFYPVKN

cathepsin S = molecular target: cathepsin S
cathepsin L [2] = molecular target: cathepsin L
cathepsin B [3] = molecular target: cathepsin B
papain [4] = molecular target: T1, papain; remark: listed apart in the source
cathepsin L [5] = molecular target: cathepsin L; remark: listed apart in the source
cathepsin B [6] = molecular target: cathepsin B; remark: listed apart in the source

B1: bovine lactoferrin (manufactured by Morinaga Milk Industry Co., Ltd.) (other)
chain: APRKNVRWCTISQPEWFKCRRWQWRMKKLGAPSITCVRRAFALECIRAIAEKKADAVTLDGGMVFEAGRDPYKLRPVAAEIYGTKESPQTHYYAVAVVKKGSNFQLDQLQGRKSCHTGLGRSAGWIIPMGILRPYLSWTESLEPLQGAVAKFFSASCVPCIDRQAYPNLCQLCKGEGENQCACSSREPYFGYSGAFKCLQDGAGDVAFVKETTVFENLPEKADRDQYELLCLNNSRAPVDAFKECHLAQVPSHAVVARSVDGKEDLIWKLLSKAQEKFGKNKSRSFQLFGSPPGQRDLLFKDSALGFLRIPSKVDSALYLGSRYLTTLKNLRETAEEVKARYTRVVWCAVGPEEQKKCQQWSQQSGQNVTCATASTTDDCIVLVLKGEADALNLDGGYIYTAGKCGLVPVLAENRKSSKHSSLDCVLRPTEGYLAVAVVKKANEGLTWNSLKDKKSCHTAVDRTAGWNIPMGLIVNQTGSCAFDEFFSQSCAPGADPKSRLCALCAGDDQGLDKCVPNSKEKYYGYTGAFRCLAEDVGDVAFVKNDTVWENTNGESTADWAKNLNREDFRLLCLDGTRKPVTEAQSCHLAVAPNHAVVSRSDRAAHVKQVLLHQQALFGKNGKNCPDKFCLFKSETKNLLFNDNTECLAKLGGRPTYEEYLGTEYVTAIANLKKCSTSPLLEACAFLTR
What does the source list for B1?
inhibition rate (%) at 10^-4M inhibitor (papain [1]): 100%; inhibition rate (%) at 10^-5M inhibitor (papain [1]): 100%; inhibition rate (%) at 10^-6M inhibitor (papain [1]): 100%; inhibition rate (%) at 10^-7M inhibitor (papain [1]): 40%; inhibition rate (%) at 10^-8M inhibitor (papain [1]): 0%; inhibition rate (%) at 10^-4M inhibitor (cathepsin S): 100%; inhibition rate (%) at 10^-5M inhibitor (cathepsin S): 80%; inhibition rate (%) at 10^-6M inhibitor (cathepsin S): 15%; inhibition rate (%) at 10^-7M inhibitor (cathepsin S): 0%; inhibition rate (%) at 10^-8M inhibitor (cathepsin S): 0%; inhibition rate (%) at 10^-4M inhibitor (cathepsin L [2]): 100%; inhibition rate (%) at 10^-5M inhibitor (cathepsin L [2]): 100%; inhibition rate (%) at 10^-6M inhibitor (cathepsin L [2]): 100%; inhibition rate (%) at 10^-7M inhibitor (cathepsin L [2]): 20%; inhibition rate (%) at 10^-8M inhibitor (cathepsin L [2]): 0%; inhibition rate (%) at 10^-4M inhibitor (cathepsin B [3]): 100%; inhibition rate (%) at 10^-5M inhibitor (cathepsin B [3]): 70%; inhibition rate (%) at 10^-6M inhibitor (cathepsin B [3]): 10%; inhibition rate (%) at 10^-7M inhibitor (cathepsin B [3]): 0%; inhibition rate (%) at 10^-8M inhibitor (cathepsin B [3]): 0%

B2: human lactoferrin peptide Y679-K695 (peptide)
peptide: YEKYLGPQYVAGITNLK
For B2, which “inhibition of cysteine protease activity at 10^-4 M inhibitor” value (“inhibition of cysteine protease activity” for short) (papain [4]) is on record?
The value was > 50%.

And the “inhibition of cysteine protease activity” value (cathepsin L [5])?
Its value is > 50%.

B3: bovine transferrin (manufactured by Nihon Pharmaceutical Co., Ltd.) (other)
chain: DPERTVRWCTISTHEANKCASFRENVLRILESGPFVSCVKKTSHMDCIKAISNNEADAVTLDGGLVYEAGLKPNNLKPVVAEFHGTKDNPQTHYYAVAVVKKDTDFKLNELRGKKSCHTGLGRSAGWNIPMAKLYKELPDPQESIQRAAANFFSASCVPCADQSSFPKLCQLCAGKGTDKCACSNHEPYFGYSGAFKCLMEGAGDVAFVKHSTVFDNLPNPEDRKNYELLCGDNTRKSVDDYQECYLAMVPSHAVVARTVGGKEDVIWELLNHAQEHFGKDKPDNFQLFQSPHGKDLLFKDSADGFLKIPSKMDFELYLGYEYVTALQNLRESKPPDSSKDECMVKWCAIGHQERTKCDRWSGFSGGAIECETAENTEECIAKIMKGEADAMSLDGGYLYIAGKCGLVPVLAENYKTEGESCKNTPEKGYLAVAVVKTSDANINWNNLKDKKSCHTAVDRTAGWNIPMGLLYSKINNCKFDEFFSAGCAPGSPRNSSLCALCIGSEKGTGKECVPNSNERYYGYTGAFRCLVEKGDVAFVKDQTVIQNTDGNNNEAWAKNLKKENFEVLCKDGTRKPVTDAENCHLARGPNHAVVSRKDKATCVEKILNKQQDDFGKSVTDCTSNFCLFQSNSKDLLFRDDTKCLASIAKKTYDSYLGDDYVRAMTNLRQCSTSKLLEACTFHKP
Which “inhibition of cysteine protease activity” value (papain [4]) does the source give for B3 here?
The value was 40%.

What about the “inhibition of cysteine protease activity” value (cathepsin L [5]) of the same binder?
Its value is > 30%.

What about the “inhibition of cysteine protease activity” value (cathepsin B [6]) of the same binder?
Its value is > 30%.
